Test results reported in US20240400654A1.
Changes are numbered by the printed parent chain. Names may count otherwise. “And” between values parts separate entries of the source, which are not always exact repeats. Equal entries are not always repeated.

B1: KB001 (antibody, V domains shown)
VH: EVQLKQSGPGLVAPSQSLSITCTVSGFSLSIYSVHWVRQPPGKGLEWLGMIWGGGSSDYNSALKSRLSISKDNSKSQVFLKMNSLQTDDTAMYYCARNGNFYAMDYWGQGTSVTVSS
VL: QIVLTQSPAIMSASLGERVTMTCTASSSVSSSFLHWYQQKPGSSPQLWIYSTSNLASGVPARFSGSGSGTSYSLTISSMEAEDAATYYCHQYHHSPYIYTFGGGTKLEIKR
B2: KB001 parental mouse Fab FASEBA (WT) (Fab, V domains shown)
VH: B1 VH
VL: QIVLTQSPAIMSASLGERVTMTCTASSSVSSSFLHWYQQKPGSSPQLWIYSTSNLASGVPARFSGSGSGTSYSLTISSMEAEDAATYYCHQYHHSPYIYTFGGGTKLEIK
B3: H8 (antibody, V domains shown)
VH: QVQLQESGPGLVKPSETLSLTCTVSGFSLSIYSVHWIRQPPGKGLEWIGMIWGGGSSDYNSALKSRLTISKDTSKNQVSLKLSSVTAADTAVYYCARNGNFYAMDYWGQGTLVTVSS
VL: EIVLTQSPGTLSLSPGERATLSCTASSSVSSSFLHWYQQKPGQAPQLWIYSTSNLASGIPARFSGSGSGTDYTLTISRLEPEDFATYYCHQYHHSPYIYTFGGGTKLEIK
B4: H7 K222A (antibody, V domains shown)
VH: B3 VH
VL: B3 VL with A61D
B5: H14 K222A (antibody, V domains shown)
VH: B3 VH with I48L, V92M
VL: B3 VL with A61D, T86V
B6: H5 (antibody, V domains shown)
VH: B3 VH
VL: B3 VL with Q46R, W48L, A61D, Y72F, T86V
B7: H7 (antibody, V domains shown)
VH: B3 VH
VL: B3 VL with A61D
B8: H5 K222A (antibody, V domains shown)
VH: B3 VH
VL: B3 VL with Q46R, W48L, A61D, Y72F, T86V
B9: H14 (antibody, V domains shown)
VH: B3 VH with I48L, V92M
VL: B3 VL with A61D, T86V
B10: H8 K222A (antibody, V domains shown)
VH: B3 VH
VL: B3 VL

Columns and labels:
[1] = target: HRgpA-6H (Porphyromonas gingivalis) (UniProt P28784); test: ELISA; non-related FASEBA supernatant on HRgpA-6H coat; secondary goat anti-human IgG (H+L) HRP
[2] = target: HRgpA-6H (Porphyromonas gingivalis) (UniProt P28784); test: ELISA; non-related FASEBA supernatant on HRgpA-6H coat; secondary goat anti-human IgG F(ab')2 HRP
[3] = target: HRgpA-6H (Porphyromonas gingivalis) (UniProt P28784); test: ELISA; non-related FASEBA supernatant on HRgpA-6H coat; secondary Anti-BSA (HRP)
[4] = target: HRgpA-6H (Porphyromonas gingivalis) (UniProt P28784); test: ELISA; non-related FASEBA supernatant on HRgpA-6H coat; secondary mouse anti-human IgG F(ab')2 HRP
[5] = target: HRgpA-6H (Porphyromonas gingivalis) (UniProt P28784); test: SPR Biacore 8K, 25 C; table lists HRgpA-6H as ligand, antibody as analyte
[6] = target: whole P. gingivalis cells (strain W83) (Porphyromonas gingivalis)
[7] = target: whole P. gingivalis cells (strain W83) (Porphyromonas gingivalis); test: gold-labelled KB001, scanning electron microscopy, W83
[8] = target: HRgpA-6H (Porphyromonas gingivalis) (UniProt P28784); test: SPR Biacore 8K, 25 C; HRGPA-6H immobilized on CM5, KB001-WT-Ab as analyte
[9] = target: HRgpA-6H (Porphyromonas gingivalis) (UniProt P28784); test: ELISA, FASEBA screening, coated HRgpA-6H; library clone found WT, OD over parental WT Fab OD
[10] = target: HRgpA-6H (Porphyromonas gingivalis) (UniProt P28784); test: ELISA, FASEBA screening, coated HRgpA-6H 0.0625 ug/ml
[11] = target: HRgpA-6H (Porphyromonas gingivalis) (UniProt P28784); test: SPR Biacore 8K; table lists HRgpA-6H as ligand, antibody as analyte

Molecule	Kd [5] [nM]	koff [5] [s⁻¹]	kon [5] [M⁻¹ s⁻¹]	Kd [11] [nM]	koff [11] [s⁻¹]	kon [11] [M⁻¹ s⁻¹]	also measured
non-related FASEBA supernatant (NC) (Fab)	–	–	–	–	–	–	OD450 ([1]; coating antigen 1 µg/ml): 1.15; OD450 ([1]; coating antigen 2 µg/ml): 0.736; OD450 [2]: 0.672; OD450 [3]: 1.09; OD450 ([4]; coating antigen 1 µg/ml): 0.552; OD450 ([4]; coating antigen 2 µg/ml): 0.288
B1	2.02	8.62e-05	42600	–	–	–	Kd [6]: 11.4 nM; Response [6]: 0.297 and 0.216 and 0.186; koff [6]: 0.000219 s⁻¹; kon [6]: 19200 M⁻¹ s⁻¹; IgG molecules bound per bacterium (molecules per bacterium) [7]: 60 and 80; Kd [8]: 2.02 nM; koff [8]: 8.62e-05 s⁻¹; kon [8]: 42600 M⁻¹ s⁻¹
B2	–	–	–	–	–	–	Ratio OD(Variant)/OD(WT) [9]: 0.956; OD450 nm [10]: 0.831
B3	1.33	6.7e-05	50300	–	–	–	–
B4	–	–	–	0.795	4.36e-05	54800	–
B5	–	–	–	1.3	6.53e-05	50100	–
B6	0.825	4.5e-05	54500	–	–	–	–
B7	0.258	1.07e-05	41400	–	–	–	–
B8	–	–	–	0.068	3.42e-06	50200	–
B9	0.939	4.89e-05	52100	–	–	–	–
B10	–	–	–	0.57	3.3e-05	58000	–
